# Measured values reported in article PMC6168687, “The C‐terminal segment of collagenase in Grimontia hollisae binds collagen to enhance collagenolysis” (FEBS Open Bio, 2018).
# Target: T1, insoluble type I collagen fibers (UniProt P02453 162-1217; P02465 80-1117)
# T1 construct: type I collagen, alpha-1(I) chain; type I collagen, alpha-2(I) chain; Triple-helical, insoluble fibres; also called insoluble collagen fibers; native collagen; source: bought: Sigma‐Aldrich
# Experiment: collagen-binding assay with Scatchard analysis; 2.5 mg insoluble type I collagen fibers in 50 μL binding buffer (50 mM Tris/HCl, 0.2 M NaCl, 5 mM CaCl2, pH 7.5) with 0.1–2.0 mg/mL C‐terminal segment and 0.05 mg/mL BSA; unbound protein in the filtrate by SDS/PAGE densitometry; triplicate; least‐squares fit
# Details: both partners purified
# T1 sequence (P02453 162-1217, chain 1 of 2): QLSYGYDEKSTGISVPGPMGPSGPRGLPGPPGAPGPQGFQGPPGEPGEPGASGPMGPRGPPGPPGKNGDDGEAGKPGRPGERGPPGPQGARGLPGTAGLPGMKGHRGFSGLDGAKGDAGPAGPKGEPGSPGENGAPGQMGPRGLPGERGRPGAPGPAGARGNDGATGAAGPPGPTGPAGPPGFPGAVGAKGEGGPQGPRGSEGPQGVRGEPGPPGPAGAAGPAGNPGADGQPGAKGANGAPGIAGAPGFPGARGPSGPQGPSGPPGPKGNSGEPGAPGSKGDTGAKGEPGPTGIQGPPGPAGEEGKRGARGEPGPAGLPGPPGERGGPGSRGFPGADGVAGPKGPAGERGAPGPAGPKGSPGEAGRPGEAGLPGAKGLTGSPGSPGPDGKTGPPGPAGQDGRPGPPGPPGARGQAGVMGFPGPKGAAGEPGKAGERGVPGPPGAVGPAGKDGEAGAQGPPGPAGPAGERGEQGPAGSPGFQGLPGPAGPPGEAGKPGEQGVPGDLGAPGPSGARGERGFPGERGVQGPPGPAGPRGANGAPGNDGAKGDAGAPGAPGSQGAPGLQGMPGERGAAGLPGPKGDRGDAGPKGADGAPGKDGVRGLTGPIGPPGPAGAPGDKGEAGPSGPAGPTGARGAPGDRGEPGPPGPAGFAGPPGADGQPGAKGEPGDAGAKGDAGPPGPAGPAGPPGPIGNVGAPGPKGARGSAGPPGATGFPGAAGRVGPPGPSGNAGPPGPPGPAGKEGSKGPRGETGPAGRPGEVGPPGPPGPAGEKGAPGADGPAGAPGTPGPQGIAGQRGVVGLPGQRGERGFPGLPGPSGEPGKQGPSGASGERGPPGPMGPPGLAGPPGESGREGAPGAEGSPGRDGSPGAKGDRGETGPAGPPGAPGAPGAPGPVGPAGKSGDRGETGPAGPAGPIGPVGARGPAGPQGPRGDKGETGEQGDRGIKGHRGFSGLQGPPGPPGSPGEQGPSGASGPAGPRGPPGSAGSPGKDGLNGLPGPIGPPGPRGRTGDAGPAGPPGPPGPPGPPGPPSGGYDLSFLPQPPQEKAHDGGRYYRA
# T1 sequence (P02465 80-1117, chain 2 of 2): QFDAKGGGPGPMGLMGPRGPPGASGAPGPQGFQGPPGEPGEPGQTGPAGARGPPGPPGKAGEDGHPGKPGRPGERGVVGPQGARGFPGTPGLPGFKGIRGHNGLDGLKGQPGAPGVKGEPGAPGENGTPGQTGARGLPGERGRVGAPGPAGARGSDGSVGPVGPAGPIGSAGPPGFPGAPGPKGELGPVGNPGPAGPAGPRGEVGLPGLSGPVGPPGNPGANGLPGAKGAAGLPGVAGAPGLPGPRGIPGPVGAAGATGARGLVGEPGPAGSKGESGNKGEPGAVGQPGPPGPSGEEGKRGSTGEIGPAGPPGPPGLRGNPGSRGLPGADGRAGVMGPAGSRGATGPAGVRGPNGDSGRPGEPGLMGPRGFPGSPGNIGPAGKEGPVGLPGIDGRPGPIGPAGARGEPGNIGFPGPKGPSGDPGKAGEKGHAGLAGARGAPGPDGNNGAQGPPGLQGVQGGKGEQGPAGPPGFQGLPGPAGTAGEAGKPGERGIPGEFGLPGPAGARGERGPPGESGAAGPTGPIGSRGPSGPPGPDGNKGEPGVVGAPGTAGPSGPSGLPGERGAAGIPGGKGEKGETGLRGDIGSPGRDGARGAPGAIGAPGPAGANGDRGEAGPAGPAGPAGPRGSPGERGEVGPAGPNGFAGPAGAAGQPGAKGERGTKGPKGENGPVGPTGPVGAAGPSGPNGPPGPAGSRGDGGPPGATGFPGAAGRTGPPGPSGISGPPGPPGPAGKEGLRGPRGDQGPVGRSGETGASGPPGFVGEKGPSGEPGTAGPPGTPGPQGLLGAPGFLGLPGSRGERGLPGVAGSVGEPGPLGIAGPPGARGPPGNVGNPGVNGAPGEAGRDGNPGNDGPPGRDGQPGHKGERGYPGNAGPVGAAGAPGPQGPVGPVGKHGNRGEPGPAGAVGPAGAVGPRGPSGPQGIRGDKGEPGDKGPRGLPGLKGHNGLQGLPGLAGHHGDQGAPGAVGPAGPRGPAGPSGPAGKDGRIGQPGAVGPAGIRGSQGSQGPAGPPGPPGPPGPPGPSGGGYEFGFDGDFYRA
binder,measurement,value
"recombinant C‐terminal segment (aa 616–767) including the PPC domain of Grimontia hollisae strain 1706B collagenase (domain or fragment, 15.4 kDa; The forward primer carries the enterokinase site (DDDDK) just before residue T616, so the cleaved His-tag was probably N-terminal (surmised); QTOF-MS mass 15 445.01 Da fits two intrachain disulfide bonds; also called G. hollisae) TEALAKGDSGAGNGEGTGSGNEGGGESGGNTGLPENCAVLPKISDGRLALDEAACLADTASASDVLWFSIPAVSEYQTIAITAGNGTGDLTLEYSNLNWPDGTNVQASSANMGNSECIILEHQANYWGYLKVSGSFENAALLVEAGSNQCRQ",Kd,27.2 µM
